Laboratory results as given in article PMC6255760 (Nature Communications, 2018).

What was measured:
[1] = target: the molecule itself; assay: negative stain EM; FLAG-tagged proteins overexpressed in HEK293T, purified with anti-FLAG M2 agarose beads and concentrated; filaments looked for
[2] = target: the molecule itself; assay: SEC; size-exclusion profiles of the purified NOD1/RIP2 and NOD2/RIP2 fusion proteins
[3] = target: the molecule itself; assay: induced oligomerization assay; RIP2 and NLRC4–CARD monomers each mixed with their own and with other seed complexes (Supplementary Figure 4d)
[4] = target: the molecule itself; assay: negative stain EM; recombinant SNAP–RIP2–CARD seeds co-incubated with refolded monomers (about 20 μM monomer, 10:1 monomer to seed, overnight); SNAP removed with 3C protease for the core filaments; 49,000x
[5] = target: the molecule itself; assay: cryo-EM structure; helical reconstruction of core RIP2–CARD–EM filaments, 4.1 Å (FSC = 0.143), Relion 2.0

B1: FLAG–RIP2-kinase-NLRC4–CARD (other, human, UniProt O43353 1-431, looked up)
chain: MNGEAICSALPTIPYHKLADLRYLSRGASGTVSSARHADWRVQVAVKHLHIHTPLLDSERKDVLREAEILHKARFSYILPILGICNEPEFLGIVTEYMPNGSLNELLHRKTEYPDVAWPLRFRILHEIALGVNYLHNMTPPLLHHDLKTQNILLDNEFHVKIADFGLSKWRMMSLSQSRSSKSAPEGGTIIYMPPENYEPGQKSRASIKHDIYSYAVITWEVLSRKQPFEDVTNPLQIMYSVSQGHRPVINEESLPYDIPHRARMISLIESGWAQNPDERPSFLKCLIELEPVLRTFEEITFLEAVIQLKKTKLQSVSSAIHLCDKKKMELSLNIPVNHGPQEESCGSSQLHENSGSPETSRSLPAPQDNDFLSRKAQDCYFMKLHHCPGNHSWDSTISGSQRAAFCDHKTTPCSSAIINPLSTAGNSERLMNFIKDNSRALIQRMGMTVIKQITDDLFVWNVLNREEVNIICCEKVEQDAARGIIHMILKKGSESCNLFLKSLKEWNYPLFQDLNGQSLFHQTSEGDLDD
notes: RIP2 (RIPK2), human, what is left of 1–540 when the CARD domain (432–540) is replaced; NLRC4 CARD, human, residues 1–100, in place of the RIP2–CARD domain; the limit 431 is worked out from the replaced stretch 432–540; also called chimeric RIP2; NLRC4–CARD swapped construct; source: HEK293T, transfected; purified from cellular extracts (EM); in total cellular extracts (sedimentation); not shown: …
binding result [1]: binds

B2: top-down NOD2/RIP2 fusion construct (other)
chain: QPGIAQQWIQSKERDIVNQMTEACLNQSLDALLSRDLIMKEDYELVSTKPTRTSKVRQLLDTTDIQGEEFAKVIVQKLKDNKQMGLQPYPEILVVSRSPSLNLLQNKSMMCSQEAFQAQRSQLVELLVSGSLEGFESVLDWLLSWEVLSWEDYEGFHLLGQPLSHLARRLLDTVWNKGTWACQKLIAAAQEAQADSQSPKLHGCWDPHSLHPARDLQSHRPAIVRRLHSHVENMLDLAWERGFVSQYECDEIRLPIFTPSQRARRLLDLATVKANGLAAFLLQHVQELPVPLALPLEAATCK
stoichiometry N [2]: ~4

B3: SNAP–RIP2–CARD (domain or fragment, human, UniProt O43353 432-540, looked up)
chain: QPGIAQQWIQSKREDIVNQMTEACLNQSLDALLSRDLIMKEDYELVSTKPTRTSKVRQLLDTTDIQGEEFAKVIVQKLKDNKQMGLQPYPEILVVSRSPSLNLLQNKSM
modifications: BG-Alexa Fluor 647 on monomers, BG-Alexa Fluor 488 on seeds (native gel assay)
notes: RIP2 (RIPK2), human, CARD domain residues 432–540; a 3C protease site lies between SNAP and the CARD; the methods also name a RIP2–CARD (432–540)–SNAP; also called SNAP–RIP2–CARD seeds; SNAP–RIP2–CARD monomers; source: E. coli BL21(DE3), purified (Ni-NTA, SEC): oligomeric seed fraction; not shown: SNAP-tag, N-terminal, kept
binding result [3]: binds

B4: core RIP2–CARD filament (SNAP removed) (domain or fragment, human, UniProt O43353 432-540, looked up)
chain: QPGIAQQWIQSKREDIVNQMTEACLNQSLDALLSRDLIMKEDYELVSTKPTRTSKVRQLLDTTDIQGEEFAKVIVQKLKDNKQMGLQPYPEILVVSRSPSLNLLQNKSM
notes: RIP2 (RIPK2), human, CARD domain residues 432–540; also called 3C-protease-digested core RIP2–CARD thin filament; source: E. coli BL21(DE3); extended SNAP–RIP2–CARD filaments digested with 3C protease, purified (Superose 6); not shown: SNAP-tag, N-terminal, cleaved
binding result [4]: binds

B5: RIP2–CARD–EM (domain or fragment, human)
chain: VDEALREAQTKSAQPGIAQQWIQSKREDIVNQMTEACLNQSLDALLSRDLIMKEDYELVSTKPTRTSKVRQLLDTTDIQGEEFAKVIVQKLKDNKQMGLQPYPEILVVSRS
notes: 13 extra amino acids (13aa) attached to the N-terminus of residue 432 of RIP2–CARD; RIP2 (RIPK2), human, CARD domain 432–529 (last 11 residues of 432–540 removed); also called core RIP2–CARD–EM; RIP2–CARD (432–529); source: E. coli BL21(DE3); not shown: SNAP-tag, N-terminal, cleaved
binding result [5]: binds

B6: top-down NOD1/RIP2 fusion construct (other)
chain: QPGIAQQWIQSKERDIVNQMTEACLNQSLDALLSRDLIMKEDYELVSTKPTRTSKVRQLLDTTDIQGEEFAKVIVQKLKDNKQMGLQPYPEILVVSRSPSLNLLQNKSMMEEQGHSEMEIIPSESHPHIQLLKSNRELLVTHIRNTQCLVDNLLKNDYFSAEDAEIVCACPTQPDKVRKILDLVQSKGEEVSEFFLYLLQQLADAYVDLRPWLLEIGFS
stoichiometry N [2]: ~4
